Source: the supplement of paper PMC9112550, “Optimization of the antimicrobial peptide Bac7 by deep mutational scanning” (BMC Biology, 2022)

Tested on: Escherichia coli TOP10
Test: shrunken log2 fold change of peptide-encoding DNA abundance (4.5 h post-induction vs induction); higher = less antimicrobial activity (less host growth inhibition)
Conditions: time post-induction: 4.5 h; library: site-saturation at positions 5, 18, 19, 20
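Note: peptides expressed intracellularly from a pBAD plasmid library in pooled LB shake-flask culture, induced with 0.3% L-arabinose, DNA abundance read by NGS, three biological replicates, DESeq2 with apeglm shrinkage.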

Sequence	shrunken log2 fold change
RRIRRRPPRLPRPRPRPCIQPRP	-0.271
RRIRRRPPRLPRPRPRPCIYPRP	0.0603
RRIRRRPPRLPRPRPRPCKIPRP	0.0604
RRIRRRPPRLPRPRPRPCKRPRP	0.0349
RRIRRRPPRLPRPRPRPCLEPRP	0.11
RRIRRRPPRLPRPRPRPCMMPRP	-0.292
RRIRRRPPRLPRPRPRPCNFPRP	-0.0159
RRIRRRPPRLPRPRPRPCPYPRP	0.0825
RRIRRRPPRLPRPRPRPCRYPRP	-0.0616
RRIRRRPPRLPRPRPRPCSVPRP	0.178
RRIRRRPPRLPRPRPRPCWGPRP	0.0286
RRIRRRPPRLPRPRPRPCYFPRP	-0.0239
RRIRRRPPRLPRPRPRPCYNPRP	-0.41
RRIRRRPPRLPRPRPRPCYYPRP	0.0129
RRIRRRPPRLPRPRPRPDAVPRP	0.462
RRIRRRPPRLPRPRPRPDCYPRP	-0.236
RRIRRRPPRLPRPRPRPDDLPRP	-0.128
RRIRRRPPRLPRPRPRPDEMPRP	0.753
RRIRRRPPRLPRPRPRPDEQPRP	0.237
RRIRRRPPRLPRPRPRPDESPRP	0.037
RRIRRRPPRLPRPRPRPDFDPRP	0.291
RRIRRRPPRLPRPRPRPDGDPRP	0.485
RRIRRRPPRLPRPRPRPDGSPRP	0.0601
RRIRRRPPRLPRPRPRPDGWPRP	1.45
RRIRRRPPRLPRPRPRPDIFPRP	0.0756

Sequence	shrunken log2 fold change
RRIRRRPPRLPRPRPRPDKPPRP	0.583
RRIRRRPPRLPRPRPRPDKWPRP	0.107
RRIRRRPPRLPRPRPRPDMFPRP	0.0219
RRIRRRPPRLPRPRPRPDMHPRP	-0.203
RRIRRRPPRLPRPRPRPDMKPRP	-0.124
RRIRRRPPRLPRPRPRPDNMPRP	-0.259
RRIRRRPPRLPRPRPRPDQPPRP	0.0262
RRIRRRPPRLPRPRPRPDRFPRP	0.394
RRIRRRPPRLPRPRPRPDRLPRP	0.058
RRIRRRPPRLPRPRPRPDSHPRP	-0.00863
RRIRRRPPRLPRPRPRPDVAPRP	0.592
RRIRRRPPRLPRPRPRPDVNPRP	0.0369
RRIRRRPPRLPRPRPRPDVRPRP	0.0483
RRIRRRPPRLPRPRPRPDYCPRP	-0.214
RRIRRRPPRLPRPRPRPEADPRP	0.774
RRIRRRPPRLPRPRPRPECRPRP	0.272
RRIRRRPPRLPRPRPRPECWPRP	0.958
RRIRRRPPRLPRPRPRPECYPRP	0.368
RRIRRRPPRLPRPRPRPEEIPRP	-0.0243
RRIRRRPPRLPRPRPRPEFHPRP	0.0566
RRIRRRPPRLPRPRPRPEGAPRP	1.05
RRIRRRPPRLPRPRPRPEGDPRP	0.956
RRIRRRPPRLPRPRPRPEIFPRP	0.215
RRIRRRPPRLPRPRPRPEKKPRP	0.0396
RRIRRRPPRLPRPRPRPEKLPRP	0.128

Sequence	shrunken log2 fold change
RRIRRRPPRLPRPRPRPEMPPRP	0.207
RRIRRRPPRLPRPRPRPENDPRP	0.785
RRIRRRPPRLPRPRPRPENMPRP	0.0592
RRIRRRPPRLPRPRPRPESFPRP	0.0965
RRIRRRPPRLPRPRPRPESSPRP	0.53
RRIRRRPPRLPRPRPRPEVFPRP	0.0496
RRIRRRPPRLPRPRPRPEWDPRP	0.426
RRIRRRPPRLPRPRPRPEWPPRP	0.387
RRIRRRPPRLPRPRPRPEYCPRP	0.0246
RRIRRRPPRLPRPRPRPEYGPRP	-0.0277
RRIRRRPPRLPRPRPRPFAMPRP	0.0854
RRIRRRPPRLPRPRPRPFCKPRP	-0.188
RRIRRRPPRLPRPRPRPFCWPRP	0.45
RRIRRRPPRLPRPRPRPFDLPRP	0.0765
RRIRRRPPRLPRPRPRPFDVPRP	-0.0126
RRIRRRPPRLPRPRPRPFFDPRP	0.296
RRIRRRPPRLPRPRPRPFFPPRP	0.263
RRIRRRPPRLPRPRPRPFGNPRP	-0.18
RRIRRRPPRLPRPRPRPFGSPRP	-0.0013
RRIRRRPPRLPRPRPRPFHNPRP	0.00548
RRIRRRPPRLPRPRPRPFHVPRP	-0.00804
RRIRRRPPRLPRPRPRPFIQPRP	-0.0404
RRIRRRPPRLPRPRPRPFKFPRP	-0.0354
RRIRRRPPRLPRPRPRPFKGPRP	0.0185
RRIRRRPPRLPRPRPRPFMPPRP	-0.00307

Sequence	shrunken log2 fold change
RRIRRRPPRLPRPRPRPFMRPRP	0.341
RRIRRRPPRLPRPRPRPFMYPRP	-0.174
RRIRRRPPRLPRPRPRPFPFPRP	-0.0334
RRIRRRPPRLPRPRPRPFPKPRP	0.0876
RRIRRRPPRLPRPRPRPFPLPRP	0.49
RRIRRRPPRLPRPRPRPFQVPRP	-0.0462
RRIRRRPPRLPRPRPRPFSVPRP	0.0458
RRIRRRPPRLPRPRPRPFTYPRP	-0.22
RRIRRRPPRLPRPRPRPFYDPRP	-0.193
RRIRRRPPRLPRPRPRPFYFPRP	0.116
RRIRRRPPRLPRPRPRPGCDPRP	0.456
RRIRRRPPRLPRPRPRPGDPPRP	0.593
RRIRRRPPRLPRPRPRPGESPRP	0.0142
RRIRRRPPRLPRPRPRPGFGPRP	0.497
RRIRRRPPRLPRPRPRPGHMPRP	0.101
RRIRRRPPRLPRPRPRPGIVPRP	-0.0478
RRIRRRPPRLPRPRPRPGIYPRP	0.0548
RRIRRRPPRLPRPRPRPGKKPRP	0.0542
RRIRRRPPRLPRPRPRPGLRPRP	0.338
RRIRRRPPRLPRPRPRPGMHPRP	0.217
RRIRRRPPRLPRPRPRPGMTPRP	0.129
RRIRRRPPRLPRPRPRPGPDPRP	0.518
RRIRRRPPRLPRPRPRPGRRPRP	0.456
RRIRRRPPRLPRPRPRPGSHPRP	-0.154
RRIRRRPPRLPRPRPRPGSIPRP	-0.0979

Sequence	shrunken log2 fold change
RRIRRRPPRLPRPRPRPGTIPRP	-0.502
RRIRRRPPRLPRPRPRPGTKPRP	0.0056
RRIRRRPPRLPRPRPRPGTMPRP	0.186
RRIRRRPPRLPRPRPRPGVNPRP	-0.271
RRIRRRPPRLPRPRPRPGWYPRP	0.205
RRIRRRPPRLPRPRPRPGYHPRP	0.456
RRIRRRPPRLPRPRPRPGYNPRP	-0.27
RRIRRRPPRLPRPRPRPGYVPRP	0.183
RRIRRRPPRLPRPRPRPHCGPRP	-0.0836
RRIRRRPPRLPRPRPRPHDKPRP	0.302
RRIRRRPPRLPRPRPRPHIMPRP	-0.435
RRIRRRPPRLPRPRPRPHKGPRP	0.221
RRIRRRPPRLPRPRPRPHKTPRP	0.107
RRIRRRPPRLPRPRPRPHLDPRP	0.176
RRIRRRPPRLPRPRPRPHMFPRP	0.119
RRIRRRPPRLPRPRPRPHNHPRP	-0.237
RRIRRRPPRLPRPRPRPHPCPRP	0.0156
RRIRRRPPRLPRPRPRPHQIPRP	0.0553
RRIRRRPPRLPRPRPRPHQPPRP	0.557
RRIRRRPPRLPRPRPRPHRLPRP	0.0507
RRIRRRPPRLPRPRPRPHRPPRP	0.203
RRIRRRPPRLPRPRPRPHRSPRP	-0.00354
RRIRRRPPRLPRPRPRPHSVPRP	0.0319
RRIRRRPPRLPRPRPRPHVYPRP	-0.341
RRIRRRPPRLPRPRPRPIAHPRP	-0.0355

Sequence	shrunken log2 fold change
RRIRRRPPRLPRPRPRPIEFPRP	-0.0597
RRIRRRPPRLPRPRPRPIEKPRP	0.149
RRIRRRPPRLPRPRPRPIFCPRP	0.0473
RRIRRRPPRLPRPRPRPIFMPRP	0.294
RRIRRRPPRLPRPRPRPIGDPRP	0.257
RRIRRRPPRLPRPRPRPIHHPRP	-0.207
RRIRRRPPRLPRPRPRPIISPRP	-0.155
RRIRRRPPRLPRPRPRPIKDPRP	-0.0902
RRIRRRPPRLPRPRPRPIKGPRP	0.174
RRIRRRPPRLPRPRPRPIKHPRP	0.0383
RRIRRRPPRLPRPRPRPIKRPRP	0.156
RRIRRRPPRLPRPRPRPILTPRP	0.447
RRIRRRPPRLPRPRPRPIMNPRP	-0.347
RRIRRRPPRLPRPRPRPINEPRP	-0.0486
RRIRRRPPRLPRPRPRPINGPRP	-0.0719
RRIRRRPPRLPRPRPRPINIPRP	-0.256
RRIRRRPPRLPRPRPRPIQMPRP	0.272
RRIRRRPPRLPRPRPRPIRGPRP	0.1
RRIRRRPPRLPRPRPRPITFPRP	0.058
RRIRRRPPRLPRPRPRPITMPRP	-0.0568
RRIRRRPPRLPRPRPRPITVPRP	-0.179
RRIRRRPPRLPRPRPRPIVDPRP	0.841
RRIRRRPPRLPRPRPRPIVIPRP	-0.125
RRIRRRPPRLPRPRPRPIWWPRP	0.58
RRIRRRPPRLPRPRPRPKAPPRP	0.0122
